Assay results as given in the supplement of paper PMC10567573.

B1: CDC25B (parent)
chain: FVDILESDLKDDDAVPPGMESLIS
B2: PKD2L1 (parent)
chain: YSGGGYYLDLPGSRQGSAEALRAL

Variants of: B1
Experiment: protein stability index of a GFP-peptide fusion (GPS, HEK-293T) (PSI 1-6); higher = more stable
Conditions: c terminus: a fixed tail appended
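Also: lentivirally expressed fusions sorted by FACS into six bins by GFP to DsRed ratio, PSI derived from sequencing read proportions per bin multiplied by bin number.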

Protein stability index: each site, then its substitutions
I23: F 2.48, D 3.7, Q 3.77, Y 2.69, E 3.57, C 2.93, V 2.65, A 3.54, L 3.07, R 2.77, N 2.6, W 2.25, M 3.02, S 3.3, G 3.03, H 3.56, T 2.91, K 2.83, P 2.96
E20: F 1.79, K 2.74, Y 2.12, G 2.48, D 2.6, L 2.2, I 2.31, M 2.16, W 1.78, T 2.51, C 2.43, V 2.66, P 2.44, H 2.69, A 2.77, N 2.76, S 2.43, R 2.71, Q 3.08
S21: N 2.81, Y 2.35, H 2.67, K 2.68, V 2.93, C 2.93, L 3.43, F 2.5, R 2.86, T 2.76, P 3.02, W 2.22, E 3.05, G 2.61, D 3.15, A 2.84, M 2.96, Q 2.83, I 3.24
M19: N 3.4, L 3.08, I 2.85, W 2.67, H 2.89, R 2.55, E 3.37, V 3.08, P 3.54, T 3.09, Q 3.6, F 2.83, Y 2.32, S 3.45, G 3.06, K 3.02
L22: C 3.15, T 3.65, I 2.77, S 3.66, R 2.66, E 3.92, K 2.99, F 2.63, G 3.21, W 2.43, V 3.19, A 3.37, H 3.52, P 3.36, Y 2.47, D 3.67, M 3.1, Q 3.32, N 2.71
S24: L 2.18, M 2.52, E 3.27, H 2.94, D 3.45, F 2.01, Y 2.47, T 3.02, N 2.85, G 3.02, P 2.57, R 2.96, I 2.69, A 3.1, V 2.41, Q 3.9, W 1.72, C 2.66, K 2.82

Variants of: B2
Experiment: as above
Conditions: c terminus: a fixed tail appended

Protein stability index, by site and new letter:
S2: W 2.13, K 2.22, I 2.34, P 3.27, N 1.84, T 2.59, F 1.93, H 2.88, G 1.45, Q 2.3, M 1.92, E 3, R 2.51, L 1.4, Y 2.19, V 3.97, D 2.45
G4: A 1.56
G3: Q 1.52, N 1.52, D 2.5, H 2.02, C 2.41, L 2.87, A 1.58, F 1.45, E 2.06, R 2.47, V 2.21, W 2.09, I 2.27, M 2.12, K 2.37, S 1.73, Y 1.7, P 2.31, T 1.93
Y1: F 2.68, R 3.13, E 3.75, D 4.08, W 2.94, N 3.58, M 2.99, H 3.5, A 3.15, L 3.1, T 3.58, C 2.29, S 3.48, I 2.72, K 3.16, P 3.49, G 3.66, Q 3.75, V 2.98
